The data set has as its system MS2 coat protein. The experiment in a line: apparent KD of MS2 coat protein; designed switch direction (-1 OFF switch, 1 ON switch): -1; higher = weaker reporter binding. The procedure, abridged:
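The reported apparent KD is a per-design median over clusters, from curve fits of normalised cluster fluorescence. Protein titrations used SNAP-549-labelled MS2 coat protein, doubled from 0.7 or 1.5 nM to 3 µM, in Tris-HCl pH 7.5 buffer with KCl, MgCl2, BSA, DTT, tRNA and Tween-20, with no input, 200 uM small-molecule ligand, or an oligonucleotide input. The RNA switches were transcribed on Illumina chips by stalled E. coli RNA polymerase.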

[1] abbreviates: input ligand: microRNA oligo, concentration not stated.
[2] abbreviates: Eterna round: R95, input ligand: FMN 200 uM.
The mark [3] stands for this setting: Eterna round: R95, input ligand: microRNA oligo, concentration not stated.
Where [4] appears, read: Eterna round: R95, input ligand: none.

Consider “AAUAACAGAGGAUAUACUAUUUUAUGUGUUUGUUAUUUUGAACAUGAGGAUCACCCAUGUAGAAGGCUGAUUAA [JMF 49] (Eterna round: R96, puzzle: Exclusion 2)”, for which the “apparent KD of MS2 coat protein” value was determined as 45.6 nM (input ligand: FMN 200 uM), 35.2 nM under setting [1] and 44.1 nM (input ligand: none).
Turning to “AUUAUUUAAGUCAGGAUAUCGUAUUUAAUUAAAUACGAGAAGGGACAUGAGGAUCACCCAUGUAAUAAAUUUUA [JMFs Solution 1] (puzzle: Brourd's mod of Exclusion 4)”, the “apparent KD of MS2 coat protein” value reads like this: under setting [2], 24.1 nM; under setting [3], 14.2 nM; under setting [4], 15.9 nM.
In the case of “AAAGUCGGAGGAUAUACAAUAGAUGACAAUAAAGUUGGAGUACAUGAGGAUCACCCAUGUAGAAGGCCGAGAAA [Swimmer becomes a laser gun] (puzzle: Exclusion 2)”, the “apparent KD of MS2 coat protein” value under setting [2] worked out at 28.2 nM, the “apparent KD of MS2 coat protein” value under setting [3] stood at 17.3 nM and the “apparent KD of MS2 coat protein” value under setting [4] was determined as 20.6 nM.
For “UGUUAAGCAGGAUAUACGUUGUCCUAUUAAACUAGUGAAGGACAUGAGGAUCACCCAUGUAGAAGGGCUAAGCG [Eternabot (L2) Solution 70] (Eterna round: R97, puzzle: Exclusion 2)”, the “apparent KD of MS2 coat protein” value reads like this: (input ligand: FMN 200 uM) 85.2 nM; (input ligand: none) 83.7 nM.
With “ACAUGAGGAUCACCCAUGUGACCACGAUGGCUGAUGUAGACCUAGGAUAUGAGUGAAUAUCUAUCUCAGAAGGAGGUUGACUGG [Deportation 50 - Jieux - Exclusion NG 3] (Eterna round: R96, puzzle: Exclusion NG 3)”, the “apparent KD of MS2 coat protein” value is, setting by setting: (input ligand: FMN 200 uM) 46.7 nM; under setting [1], 52.1 nM; (input ligand: none) 61.2 nM.
Regarding “CAUGAUUGGGAAGGAUAUUGACCUAGUUAGCGCCGAGAAGGUCCCUGUCACAUGAGGAUCACCCAUGUGAAUCUGGUGUUCGAG [Ex NG1 #94] (Eterna round: R96, puzzle: Exclusion NG 1)”, the “apparent KD of MS2 coat protein” value by setting is: (input ligand: FMN 200 uM) 36.7 nM; under setting [1], 17.9 nM; (input ligand: none) 19.7 nM.
With “GGCAUGUGAGGAUAUUAACGGCCUAGACCUGGAACGCCACUUAAGAAGGUACAUGAGGAUCACCCAUGUUGGUG [Eternabot (L2) Solution 19] (Eterna round: R97, puzzle: Exclusion 4)”, the “apparent KD of MS2 coat protein” value runs as follows: (input ligand: FMN 200 uM) 711 nM; (input ligand: none) 367 nM.
With “CUGAACCCGGUAGGAUAUAUUGUGGGCAAGCAUGGAACGACAUGAGGAUCACCCAUGUAAUUUAGGUAGAAGGGCCAAGAGAUU [Excl-NG2-LRO10] (Eterna round: R96, puzzle: Exclusion NG 2)”, the “apparent KD of MS2 coat protein” value by setting is: (input ligand: FMN 200 uM) 74.2 nM; under setting [1], 41.8 nM; (input ligand: none) 73.7 nM.
As for “UUCUAACGAGGAUAUCGAUGGUGGAACAUGAGGAUCACCCAUGUAUGAGAUAUUGUAGUUCGAGAAGGCGUUCAGU [JR_E5_Sub057] (puzzle: Exclusion 5)”, the “apparent KD of MS2 coat protein” value under setting [3] turned out to be 36.6 nM.
With “GGAUCGAGUGUGAGGAUAUGCUGGUCCUUGGAUCAGCAGAAGGCACAUGAGGAUCACCCAUGUGAAGACGGUCC [Copy of R95 JL bmx4 3.16] (Eterna round: R97, puzzle: Brourd's mod of Exclusion 4)”, the “apparent KD of MS2 coat protein” value (input ligand: FMN 200 uM) stood at 288 nM and the “apparent KD of MS2 coat protein” value (input ligand: none) was 38.6 nM.
With “UUCCUCUCUUCUUUGUCUCACAUGAGGAUCACCCAUGUAACAUAGGAUAUGCUUGGUAUUUAUAUGCAGAAGGAUGUUAGUAUU [JR_ExcNG3_Sub083] (Eterna round: R96, puzzle: Exclusion NG 3)”, the “apparent KD of MS2 coat protein” value runs as follows: (input ligand: FMN 200 uM) 60.8 nM; under setting [1], 19 nM; (input ligand: none) 25.7 nM.
In the case of “CCGGAAAAGGAGGAUAUAGGAGUCGAUAGACACCUAGAAGGUCUGACAUGAGGAUCACCCAUGUGUCCUACCGG [Fiskers Ex 6 - 89] (puzzle: Exclusion 6)”, the “apparent KD of MS2 coat protein” value under setting [3] is 20.8 nM.

These data come from the supplement of paper PMC9170038.
